Reference: patent US20230265217A1 (published 2023)
Numbering of substitutions follows the chain as printed. Several values for one entry are separate records, joined by “and”; a condition that tells them apart may be missing. Equal entries are not always repeated.

B1: 5A-3 (VHH)
VHH: EVQLVESGGGLVQPGGSLRLSCAASGSIFSIDVMGWFRQAPGKEREFVAGISWSGDSTLYADSVKGRFTISADNSKNTAYLQMNSLKPEDTAVYYCAAFDGYTGSDWGQGTLVTVSS
B2: Variant 6A-3 (VHH)
VHH: EVQLVESGGGLVQPGGSLRLSCAASGFTFSPSWMGWFRQAPGKEREFVATINEYGGRNYADSVKGRFTISADNSKNTAYLQMNSLKPEDTAVYYCARVDRDFDYWGQGTLVTVSS
B3: 7-26 (VHH)
VHH: EVQLVESGGGLVQPGGSLRLSCAASGSTFSINAMGWFRQAPGKEREFVAGITSSGGYTNYADSVKGRFTISADNSKNTAYLQMNSLKPEDTAVYYCAADGVPEYSDYASGPVWGQGTLVTVSS
B4: Variant 3-31 (VHH)
VHH: B3 VHH
B5: 3-31 (VHH)
VHH: B3 VHH
B6: 7-37 (VHH)
VHH: B3 VHH with F29L, S53R, G56S, Y57V
B7: 7-14 (VHH)
VHH: EVQLVESGGGLVQPGGSLRLSCAASGSTFSINAMGWFRQAPGKEREFVAGISRGGTTNYADSVKGRFTISADNSKNTAYLQMNSLKPEDTAVYYCAADGVPEYSDYASGPVWGQGTLVTVSS

How the values were obtained:
[1] = target: Antibody 178-08_His 501.V2 (27079) (SARS-CoV-2, UniProt P0DTC2 14-685); test: FACS
[2] = target: Antibody 178-09_His B.1.1.7 (27080) (SARS-CoV-2, UniProt P0DTC2 14-685); test: FACS
178-6 [3] = test: binding competition
[4] = target: SARS-CoV-2 S Trimer B.1.1.529 Omicron; test: SPR
[5] = target: SARS-CoV-2 S1 Subunit Monomer B.1.1.529 Omicron; test: SPR
[6] = target: Antibody 178-10_His CA_W152C_L452R_D614G (27081) (SARS-CoV-2, UniProt P0DTC2 14-685); test: FACS
178-6 [7] = test: competition
[8] = target: SARS-CoV-2 S1 Subunit Monomer B.1.617.2 Delta; test: SPR

Binder	IC50 [1]	IC50 [2]	IC50 (178-6 [3])	Kd [4]	Kd [5]	IC50 [6]	IC50 (178-6 [7])	Kd [8]
B1	0.587 nM	0.891 nM	0.904 nM	–	–	–	–	–
B2	–	–	–	< 0.04 nM	3.5 nM	–	–	–
B3	0.979 nM	1.42 nM	–	–	–	0.56 nM and 0.634 nM	0.138 nM	–
B4	–	–	–	2.1 nM	–	–	–	1.1 nM
B5	325 nM	–	–	–	–	0.629 nM	1.25 nM	–
B6	2.1 nM	2.82 nM	–	–	–	–	7.51 nM	–
B7	4.42 nM	2.52 nM	–	–	–	–	0.682 nM	–
